Laboratory results: the DeepSol protein solubility set

Experiment: soluble on expression in E. coli; label from the status in PepcDB or PDB records
For “MGSDKIHHHHHHMVALTDPDLLFPPEAHSRSLARDLYAGIKDLPIVSPHGHTDPRWYALNEPFPDPAQLLIVPDHYIFRMLFSQGVRLEDLGVASLDGAPVETDGRTIWRRFAEHYYLFRGTPTRLWFDHVLAHLFGIEEPLDATTADRHYDTIATVLQWENFRPRALFERFNIEVIATTEGALDDLEWHKMIRDSGWEGRVVTAYRPDAVVDPDFEGFSANLDRLGEITGCDTGSWAGYLDAHRQRRAFFKSFGATSSDHGHPTAETANLSDAAAQELFNRIRRGSQDERERKLFRAQMLTEMAKMSRDDGLVLQIHPGSWRNHSPSVFQRFGRDKGFDIPTRTDYVTALKPLLDCVGLERDLTVILFTLDESSYARELAPLAGVYPALKLGPAWWFHDSPEGMRRFREMTTETAGFYNTVGFNDDTRAFPSIPARHDVARRVDCAFLARLVAEHRLREDEAHELARELAHTLAKKAYRL”, the “soluble on expression in E. coli” value was “not soluble”. For “MPKIRIKLRGFDHKTLDASAQKIVEAARRSGAQVSGPIPLPTRVRRFTVIRGPFKHKDSREHFELRTHNRLVDIINPNRKTIEQLMTLDLPTGVEIEIKTVGGGR”, the “soluble on expression in E. coli” value was “soluble”. With “MSLTIIHPLLASRSAPNYRQSWRLAGVWRRAINLMTESGELLTLHRQGSGFGPGGWVLRRAQFDALCGGLCGNERPQVVAQGIRLGRFTVKQPQRYYLLRITPPAHPQALAVAWMQRAEETGLFGPLALAASDPLPAELRQFRHCFQAALNGVKTDWRHWLGKGPGLTPSHDDTLSGMLLAAWYYGALDARSGRPFFACSDNLQLVTTAVSVSYLRYAAQGYFASPLLHFVHALSCPKRTAAAIDSLLALGHTSGADTLLGFWLGQQLLQGKEGHHHHHH” the “soluble on expression in E. coli” value was “soluble”. In the case of “MGSDKIHHHHHHMKKIVERAPTVEEAIEKVVKKYGLGEGEYTVNVLEKGFHGIFGLFSKEAVVEVQITKAYFERRLKEFLTEILQVVDPEVKITVKSSGRSFFVDVESENAGRLIGKHGKTMGALQHIAMIFLNRLSDTKLNVILDMGDYREKRKKSLEKIVEEAVKKAISEKTKVVLDPMFSFERKIVHKLVRKHRGVISYSVGVEPYRRVVIEYSATRREGRRKHDIKESI”, the “soluble on expression in E. coli” value is reported as “not soluble”. With “MGDSEIYVSLDIGTASVKVIIAEMADDRLNIIGVGNVESSGIKKGIIIDIDKTVESIKKAIEQAERMVGVEISQVIVGVVSSQVHLEACRGIVAVGSENREITDEDVWNVMDAAQVVPLSPEREIINTIPDQFVVDGLTGITDPRGMIGVRLEMEGTLITGSKTILHNTLRCVERAGLEISDIALQPLAEASISLSEDDKEFGTALVNIGAGTTTVSVFEQGRLTYTGVIPVGGDNITKDLSLGLNTSTANADRVKLEHGYAFYDDASPDEVFAIDVIGSDQKQHFTQVEVADIIEARMEEIFQLVVEELNRVGKTHLPGGYVLTGGSMAIPGAIDLAGKTLAAHVRLAIPDYIGVREPSFTTAVGLIKYAYQMAELEGRDVSSTASEPRYDDEAPKQPKQKPKKSDDEKVSTKMKNFFGAFFE” the “soluble on expression in E. coli” value was “not soluble”. For “MKKTLALAATAAVLMLSACSSGFGGEKEEEITQKTAKSSEKAIVPKYNISDSYYKMVLPFKAGKARGLTTEQLNTRLDIDEFETGLMRLAQDSFSTDDYLFQEGQYLDEDTVLSWLARKKTGSDLKKAEKEDKNFKNEGLNPALPSSGSTEEKNESSPIYLASMLEHDYLVRKDKNSIQLGGVMIGLALNSVYYYREKTGDPQKEVEIKDSTLRQQGEKIAQEVINRLRKKDNLKNVPITVALYKQASKTSIVPGNFIAKTEVKAGSTDISNWDDINEKYVFYPADTTTAEKYPDDTEVFKRFKNSIEEYFPNYTGVVGTALYENDEMKKMKIDIPMQFYGKSEVVAFTQFLTGEVMDYYSKSSVDVEVNITSSDGQEAVIIRNAGDKEPTVHIYD”, the “soluble on expression in E. coli” value was “not soluble”. For “GPGSMMTPEDATGLEAARKQKIHNLKLKTACLENEELVQELHISDWSETQRQKLRGAHEKGEELLASVEVGTKWNLMEAYDLAKLMRVCGLEMSQRELYRPEDKPQFMDIIGVKKVLQDLRQNRNKTRVVSFTQLIDNSIAKMEKVEEELRRSQLDATQLAQVPTRTVKMMEDIMNATQIQNALASTDDQMQTQLAQLEKTNEIQNVAMHDGEMQVAEEQMWTKVQLQERLIELLKDKFGLIGKCEEENAQFKEIYEVQKQANQETSQMKDAKRRLRQRCETDLKHIQDAIQKADLEDAEAAKRYAGNKERSERAIKENEEMQEEAWNKIQDLERQLQNLGTDRFDEVKRRIEEVDREEKRRVENAQFLEIAAQHKKLLELTVYNCDLAMRCTGLVEELVSEGCAGVKARYDKTNQDLAALRLEVHKEHLEYFRMLYLTLGSLIYKKEKRLEEIDRNIRLAHIQLEFCVETFDPNAKKHADMKKELYKLRQGVEEELAMLKEKQAAALDDFKESEEALDAAGIEFSHPVDENNEEVLTRRSKMVEYKSHLTKQEEVRIAAEREEIKRARLLRSGGESAAAQITSGSMNADYAASAQLEL”, the “soluble on expression in E. coli” value was “soluble”. For “MGSDKIHHHHHHMIIMRFLIKVKPEERKFRVPYNHQYFLQGLIYNRIKLTNPRLSTFLHETKGPKLFTYSLFMTERREHPKGLPYFLGYRRGFFYFSTCIPEIAEAFITGLFREPEITLWGEKFYLEEVKTLKEPKKFSGSTFITLSPIAVTMEKGGKRYDVSPLEEEFYALIRENLKDKYVMIKGEKPPDDFEMEIIAAKPKRFEVKPGIYQMAWHLVFRAYGDDELIRVGYVVGFGEKNSLGFGMVKVDEQRKRRKNIGSFQESMSFNENRELETGT”, the “soluble on expression in E. coli” value was “not soluble”. With “MGHHHHHHMAGGGKHTPTPKAIIHQKFGAKASYTVEEVHDSSQSGCPGLAIPQKGPCLYRCHLQLPEFSVVSNVFKKKKDSEQSAAELALDKLGIRPQNDDLTVDEARDEIVGRIKYIFSDEFLSAEHPLGAHLRAALRRDGERCGSVPVSVIATVDAKINSRCKIINPSVESDPFLAISYVMKAAAKLADYIVASPHGLRRKNAYPSEIVEALATHVSDSLHSREVAAVYIPCIDEEVVELDTLYISSNRHYLDSIAERLGLKDGNQVMISRMFGKASCGSECRLYSEIPKKYLDNSSDASGTSNEDSSHIVKSRNARASYICGQDIHGDAILASVGYRWKSDDLDYDDVTVNSFYRICCGMSPNGIYKISRQAVIAAQLPFAFTTKSNWRGPLPREILGLFCHQHRLAEPILSSSTAPVKSLSDIFRSHKKLKVSGVDDANENLSRQKEDTPGLGHGFRCEVKIFTKSQDLVLECSPRKFYEKENDAIQNASLKALLWFSKFFADLDVDGEQSCDTDDDQDTKSSSPNVFAAPPILQKEHSSESKNTNVLSAEKRVQSITNGSVVSICYSLSLAVDPEYSSDGESPREDNESNEEMESEYSANCESSVEPIESNEEIEFEVGTGSMNPHIESEVTQMTVGEYASFKMTPPDAAEALILAVGSDTVRIRSLLSERPCLNYNILLLGVKGPSEERMEAAFFKPPLSKQRVEYALKHIRESSASTLVDFGCGSGSLLDSLLDYPTSLQTIIGVDISPKGLARAAKMLHVKLNKEACNVKSATLYDGSILEFDSRLHDVDIGTCLEVIEHMEEDQACEFGEKVLSLFHPKLLIVSTPNYEFNTILQRSTPETQEENNSEPQLPKFRNHDHKFEWTREQFNQWASKLGKRHNYSVEFSGVGGSGEVEPGFASQIAIFRREASSVENVAESSMQPYKVIWEWKKEDVEKKKTDL” the “soluble on expression in E. coli” value was “soluble”. With “MGSDKIHHHHHHMSNIKVLIQASSRSWAGGRDICMGLVNGEIAIVRTIKRALTAFPEAQFCLVAPEFDRGGELKGIVDEIADKRLQAFYGFDESPLSRMVAASSELKDDDFIVRVDGIHFCFDTNLSQQMVSLAQKNNLDCIKLPADFPVHFSSEVFRVGALRELVKILDKPELAKFHVHPKTYFELNRYDYKFEHLGSLPQYSDDYLRECRQLAQAIYEIPRQEVNSHRIASGDRLGYHYQLALKYLKSSMKVLDIACADGYGVRMMSTSLATVHGADLDPESVAYAKAHSSQKNVAFFVEDITDMSFDDDSYDAVTSFETLEHVPEEACLKELQRIIKPGGMLVLSTPQNSYGHIPVNSCHIVEYSLDYLLNLVGQYFHIVKVIGIKAGIIHDDADPYGTNTVLVCIKPIR” the “soluble on expression in E. coli” value was “not soluble”. In the case of “GMSGDSEVGTEAGLTLGGDGILRLTWPRGAAITAADAERAMLRVNQLCGDDRHPMLVDMATTADVSRGARAVFGRPCQASRIALLGSSPVDRVLANFFLGINAVPCPTKFFTSERDALTWLALT”, the “soluble on expression in E. coli” value is reported as “soluble”. In the case of “MKSNKSKYKLVVDYVIDGINEGRLKKGAWIPSLNEFREMYGLSRDTVFSGIRELKSRGIIKSNPGVGYYIVSTRVPFKHNIFLLFNEFNEFKEDIYNSFMETVGNSATVDLYFHNYNRKVFETLVNNANHKYTTYIIMSGKFADIGPLLESLSGNVFLLDHYHSELKGKYSSVFQNFEKDTYEALVYGLSNLRKYKHIVMVQKDSKEPFERYDGLRAFCKEHGFTHECIGEIQGREIVKQEVFMVVNDRDLVNLLKQADRQQLVPGKDFGIISYNDTPLKEVLAGGITTLSTDFKLMGRTMASLINKKTIETIENPWNLNIRNSL”, the “soluble on expression in E. coli” value is reported as “not soluble”. In the case of “MLGKSLVKEKITDSVVSSPNGLVLLAPEMTLPVDVEENKPEESKDSAHERNCATAGVESPSNPVDSCLKLTYVEEGDNDRESNLKLLDGSVEEKEDTKKLTDIDINSLPDEVDDSHADQSDTKEQEIDDKEDKTPLSDDGCEGKAEGTKESNQQPDSNKVDNSQPLGNGGTGEELGNRTLALKREVTPTLRASPRLIQRSWRTSRVNQKFTGTTNAVLLDSPHRCV”, the “soluble on expression in E. coli” value is reported as “soluble”. In the case of “EKEKKNVFMRTFEAISRNFSEIFAKLSPGGSARLILENPEDPFSGGLEIEAKPAGKDVKRIEAMSGGEKALTALAFVFAIQKFKPAPFYLFDEIDAHLDDANVKRVADLIKESSKESQFIVITLRDVMMANADKIIGVSMRDGVSKVVSLSLEKAMKILEEIRKKQGWEHGN”, the “soluble on expression in E. coli” value is reported as “soluble”. In the case of “SELFTLGACRQVGKSCFVLKTSEGLVMLDCGLHPSYQDDRRYPNFSLAFSYGPLKAVFITHCHADHVGALPILTERWGYDGPIYMSEPTRKLSYYILEECVGSWGGDDEWTDSSRSEWSYTQREVESCLTKCIVGWLDMCWVLTCLASS”, the “soluble on expression in E. coli” value is reported as “soluble”. With “MSLKRAVISGGAGGLGRALSDALQTRGWHVTLLDRDISAIEPSETQRVIQCDLTDPGQLAAACALAIGPQGVDLAVYNAGITQIGLFADSDEASHRRVFEINYFAAVNMARAMLGPVRQARGTHLAISSVAGFAPLYSRTSYAASKHALEGFFKSLRSEERAHGVAVQIAAPSFVATNLGNAQAQPDGIARPGSATDGMDYMTPEAAAATILRGLDRGRDMIPVGRVARLAWWINRLSPGLYQRLMESKIGREGHHHHHH” the “soluble on expression in E. coli” value was “soluble”. In the case of “MVAGLTNGELIAPMTYEETMTSDFFEAWFQKFLLPTLTTPSVIIMDNARFHRMGKLELLCEEFGYKLLPLPPYSPEYNPIEKTWAHIKKHLKKVLPSCNTFYEALLSCSCFNLEHHHHHH”, the “soluble on expression in E. coli” value is reported as “not soluble”. With “MGHHHHHHSHMITREEIANVLDQPVYDGDGNKIGDAKHVFFDDMTGRPEWVSVKTGMFGSTESFVPIRDAALVQDHLEVPYGKDQVKGAPSVDVDAGGHLSETEEHRLYDYYGINWDSVLSEAERTDDDRFAAGPGTAGAAGTAGAAGLAGTAGAAGAAGTAGGRTGREDAMRREGMRGDEGAMRREGMRGDEAMTRSEEQMHIGVERHESGRARLRKYVVTEEVQQTVPVTHEEVRVVREPITDANRDEALAGPEISEAEHEVTLHAERPVVETETVPVERVRMTTEELTENETVRGQVRKERIEAETESFTEGETKNARDDKRRGGK” the “soluble on expression in E. coli” value was “soluble”. With “MQSETTSKHTDILTSLQLSLTPRRDPTFEETTTDEQTSVQIALSPCLNATIASSKYSLDDLDVSAQYLWDTAADNLIYTTSNAREIPIRTRPTTFLTKRMTEGLQVDVTGAPTSAWIAHPLTFEVIYHHLANILCATPVFYVPHPQLLIAVASHIVSPQLESWLSTFSTPLVKDALIYHEGFPAHIKSSAWQQPLHHMSSDQLSA” the “soluble on expression in E. coli” value was “not soluble”.
